Data published in patent US20230408521A1.

Columns and labels:
[1] = biological target: recombinant mature human GDF-15 protein (as expressed in Baculovirus-transfected HighFive insect cells) (human) (UniProt Q99988); test: SPR (Biorad ProteOn XPR36), KD=koff/kon
[2] = biological target: recombinant mature human GDF-15 protein derived from expression in E. coli (human) (UniProt Q99988); test: SPR (Biorad ProteOn XPR36), E. coli GDF-15 immobilised, antibody as analyte
[3] = biological target: recombinant mature human GDF-15 protein (as expressed in Baculovirus-transfected HighFive insect cells) (human) (UniProt Q99988); test: SPR (Biorad ProteOn XPR36, GLC chip), GDF-15 immobilised, antibody as analyte, 1:1 Langmuir fit, 25 C

monoclonal anti-human GDF-15 mAb-B1-23 (antibody)
Kd [1]: 0.79 nM
deviation of rate constants against GDF-15 derived from insect cells [2]: 45%
fold difference of affinity values against GDF-15 derived from insect cells [2]: < 2 fold
koff [3]: 0.00043 s⁻¹
kon [3]: 540000 M⁻¹ s⁻¹
